{"source": "paper PMC9769108", "about": "“Tuning dynamic DNA- and peptide-driven self-assembly in DNA–peptide conjugates†” (Chemical Science, 2022)", "molecular_target": "the molecule itself", "assay": "dynamic light scattering + atomic force microscopy; TAMg buffer, room temperature, aged 0 to 28 days; total peptide 10 μM; CD alongside", "note": "Where no end group is shown, it is not given here."}
{"protein": "ILVAGK (not fully specified (N-terminus, C-terminus), The form used for conjugation is N3-ILVAGK-NH2; also called pure ILVAGK)", "note": "[ILVAGK, β-turn-forming hexapeptide (parent peptide)]", "values": [{"measurement": "binding result", "value": "binds"}]}
